Source: doi:10.1101/2023.03.02.528060

How the values were obtained:
[1] = target: Rous sarcoma virus integrase (1-286) R244A (Rous sarcoma virus (Prague A)); assay: SEC
[2] = target: Rous sarcoma virus integrase (1-286) R244E (Rous sarcoma virus (Prague A)); assay: SEC
[3] = target: Rous sarcoma virus integrase (1-286) Y246A (Rous sarcoma virus (Prague A)); assay: SEC
[4] = target: Rous sarcoma virus integrase, wt IN (1-278) (Rous sarcoma virus (Prague A)); assay: cryo-EM structure
[5] = target: Rous sarcoma virus integrase, wt full-length IN (1-286) (Rous sarcoma virus (Prague A)); assay: SEC

In the case of “Rous sarcoma virus integrase (1-286) R244A (enzyme)”, the stoichiometry N [1] is reported as 2.

In the case of “Rous sarcoma virus integrase (1-286) R244E (enzyme)”, the stoichiometry N [2] is reported as 2.

In the case of “Rous sarcoma virus integrase (1-286) Y246A (enzyme)”, the stoichiometry N [3] is reported as 2.

For “Rous sarcoma virus integrase, wt IN (1-278) (enzyme)”, the stoichiometry N [4] was 8.

“Rous sarcoma virus integrase, wt full-length IN (1-286) (enzyme)” gave a stoichiometry N [5] of 2.
